{"source": "patent US20120263644A1", "binders": {"B1": {"name": "leukotoxin (LtxA) of Aggregatibacter actinomycetemcomitans strain NJ4500 (protein)", "chain": "MATTSLLNTKQQAAQFANSVADRAKENIDAAKEQLQKALDKLGKTGKKLTLYIKNYKKGNGLTALIKAAQKLGIEVYHEGKDGPALTNGILNTGKKLLGLTERGLTLFAPELDKWIQGNKHLSNSVGSTGNLTKAIDKVQSVLGTLQAFLNTAFSGMDLDALIKARQNGKNVTDVQLAKASLNLINELIGTISSITNNVDTFSKQLNKLGEALGQVKHFGSFGDKLKNLPKLGNLGKGLGALSGVLSAISAALLLANKDADTATKAAAAAELTNKVLGNIGKAITQYLIAQRAAAGLSTTGPVAGLIASVVSLAISPLSFLGIAKQFDRARMLEEYSKRFKKFGYNGDSLLGQFYKNTGIADAAITTINTVLSAIAAGVGAASAGSLVGAPIGLLVSAITSLISGILDASKQAVFEHIANQLADKIKAWENKYGKNYFENGYDARHSAFLEDSLKLFNELREKYKTENILSITQQGWDQRIGELAGITRNGDRIQSGKAYVDYLKKGEELAKHSDKFTKQILDPIKGNIDLSGIKGSTTLTFLNPLLTAGKEERKTRQSGKYEFITELKVKGRTDWKVKGVPNSNGVYDFSNLIQHAVTRDNKVLEARLIANLGAKDDYVFVGSGSTIVNAGDGYDVVDYSKGRTGALTIDGRNATKAGQYKVERDLSGTQVLQETVSKQETKRGKVTDLLEYRNYKLDYYYTNKGFKAHDELNSVEEIIGSTLRDKFYGSKFNDVFHGHDGDDLIYGYDGDDRLYGDNGNDEIHGGQGNDKLYGGAGNDRLFGEYGNNYLDGGEGDDHLEGGNGSDILRGGSGNDKLFGNQGDDLLDGGEGDDQLAGGEGNDIYVYRKEYGHHTITEHSGDKDKLSLANINLKDVSFERNGNDLLLKTNNRTAVTFKGWFSKPNSSAGLDEYQRKLLEYAPEKDRARLKRQFELQRGKVDKSLNNKVEEIIGKDGERITSQDIDNLFDKSGNKKTISPQELAGLIKNKGKSSSLMSSSRSSSMLTQKSGLSNDISRIISATSGFGSSGKALSASPLQTNNNFNSYANSLATTAA"}}, "key": {"[1]": {"target": "constitutively active LFA-1 expressed on Jurkat T-cell line J-β2.7/LFA-1Δ", "assay": "cell-based or functional assay"}, "[2]": {"target": "leukocyte function antigen-1 (LFA-1), composed of CD11a and CD18, on human white blood cells (human) (UniProt P20701)", "sequence (P20701 26-1170, chain 1 of 2)": "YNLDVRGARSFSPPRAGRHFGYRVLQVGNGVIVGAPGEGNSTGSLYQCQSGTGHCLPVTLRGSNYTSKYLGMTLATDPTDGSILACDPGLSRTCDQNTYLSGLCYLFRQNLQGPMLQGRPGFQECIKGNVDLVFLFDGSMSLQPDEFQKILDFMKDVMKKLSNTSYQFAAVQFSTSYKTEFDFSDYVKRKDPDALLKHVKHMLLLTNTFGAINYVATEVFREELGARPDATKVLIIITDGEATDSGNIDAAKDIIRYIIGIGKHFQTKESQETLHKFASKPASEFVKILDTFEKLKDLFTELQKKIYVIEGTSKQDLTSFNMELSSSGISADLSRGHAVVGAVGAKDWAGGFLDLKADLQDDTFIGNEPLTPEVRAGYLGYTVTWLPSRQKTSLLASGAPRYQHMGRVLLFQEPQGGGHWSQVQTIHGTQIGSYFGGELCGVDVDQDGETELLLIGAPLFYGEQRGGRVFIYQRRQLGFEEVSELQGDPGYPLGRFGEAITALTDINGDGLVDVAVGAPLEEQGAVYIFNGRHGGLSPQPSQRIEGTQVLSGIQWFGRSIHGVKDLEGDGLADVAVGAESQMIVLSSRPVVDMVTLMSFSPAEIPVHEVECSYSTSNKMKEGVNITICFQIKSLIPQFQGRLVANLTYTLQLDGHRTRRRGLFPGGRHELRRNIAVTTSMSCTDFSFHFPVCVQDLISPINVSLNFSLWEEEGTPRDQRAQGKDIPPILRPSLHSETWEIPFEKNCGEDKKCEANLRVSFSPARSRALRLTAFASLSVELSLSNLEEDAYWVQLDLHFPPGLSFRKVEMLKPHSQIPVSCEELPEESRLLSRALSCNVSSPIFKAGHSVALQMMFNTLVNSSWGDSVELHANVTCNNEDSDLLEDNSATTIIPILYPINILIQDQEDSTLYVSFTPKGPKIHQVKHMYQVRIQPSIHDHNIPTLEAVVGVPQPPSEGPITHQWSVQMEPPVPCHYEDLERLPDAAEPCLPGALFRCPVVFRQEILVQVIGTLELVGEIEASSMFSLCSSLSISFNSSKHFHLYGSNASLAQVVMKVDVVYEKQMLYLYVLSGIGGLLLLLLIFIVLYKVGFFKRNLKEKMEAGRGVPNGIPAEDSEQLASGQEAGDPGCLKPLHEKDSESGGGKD", "sequence (P05107 23-769, chain 2 of 2, further chain)": "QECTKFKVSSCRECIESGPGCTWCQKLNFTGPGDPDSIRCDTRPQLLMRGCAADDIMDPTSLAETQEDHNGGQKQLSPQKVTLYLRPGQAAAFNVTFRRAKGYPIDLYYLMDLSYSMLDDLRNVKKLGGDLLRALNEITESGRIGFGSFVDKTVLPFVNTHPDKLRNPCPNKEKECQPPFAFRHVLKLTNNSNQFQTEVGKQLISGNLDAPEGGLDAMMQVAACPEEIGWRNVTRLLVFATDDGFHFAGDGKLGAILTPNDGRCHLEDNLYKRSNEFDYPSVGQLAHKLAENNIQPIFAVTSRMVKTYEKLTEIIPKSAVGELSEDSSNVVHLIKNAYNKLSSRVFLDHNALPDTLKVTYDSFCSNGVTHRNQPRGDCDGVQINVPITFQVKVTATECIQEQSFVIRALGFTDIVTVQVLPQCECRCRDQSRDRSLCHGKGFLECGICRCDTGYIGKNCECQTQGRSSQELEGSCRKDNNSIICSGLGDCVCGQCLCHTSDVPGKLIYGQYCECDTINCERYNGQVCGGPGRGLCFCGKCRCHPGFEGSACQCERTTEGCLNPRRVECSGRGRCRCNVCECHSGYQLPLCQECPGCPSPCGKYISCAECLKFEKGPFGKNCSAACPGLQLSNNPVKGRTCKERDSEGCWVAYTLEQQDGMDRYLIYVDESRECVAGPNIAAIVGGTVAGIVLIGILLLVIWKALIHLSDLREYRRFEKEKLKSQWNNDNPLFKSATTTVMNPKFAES", "assay": "cell-based or functional assay"}}}
{"binder": "B1", "values": [{"measurement": "sensitivity to LtxA-mediated toxicity, J-β2.7/LFA-1Δ cells against J-β2.7/LFA-1 wt cells", "setting": "[1]", "value": 10, "unit": "times"}, {"measurement": "50% effective dose (ED50) of LtxA against gp120-treated CD4 T cells, cell viability by cellular ATP after 20 hrs", "setting": "[2]", "value": 0.367, "unit": "µg/mL"}, {"measurement": "ED50 of LtxA against mutant gp120-treated CD4 T cells, cell viability by cellular ATP after 20 hrs", "setting": "[2]", "value": 0.44, "unit": "µg/mL"}, {"measurement": "ED50 of LtxA against untreated CD4 T cells, cell viability by cellular ATP after 20 hrs", "setting": "[2]", "value": 0.437, "unit": "µg/mL"}, {"measurement": "IC50 of inhibition of proliferation of Jurkat cells after 72 hours (CellTiter Glo)", "setting": "[2]", "value": 0.25, "unit": "µg/mL"}, {"measurement": "percent of CD3+ T lymphocytes expressing high levels of LFA-1 after LtxA treatment of PBMCs (approximately 11% before), flow cytometry", "setting": "[2]", "value": 0.4, "unit": "%"}, {"measurement": "percent of CD4 T cells activated by surface-bound anti-CD3 and anti-CD28 killed by LtxA at 390 and 780 ng/ml", "setting": "[2]", "value": 100, "unit": "%"}, {"measurement": "percent of untreated CD4 T cells susceptible to LtxA at 390 and 780 ng/ml", "setting": "[2]", "value": 50, "unit": "%"}]}
